Article PMC6663954

Target: RsPGs (polygalacturonases from Rhizoctonia solani) (Rhizoctonia solani)

“OsPGIP2^L233F, recombinant His-tagged (natural protein)” showed a reduction of RsPG activity, reduced sugar assay (polygalacturonic acid, 50 mM sodium citrate pH 5.0, 37 °C, 1 h) of 40.6%.
